# Laboratory results from patent US20130053549A1 (UCB, published 2013).
# B1: A26Fab 645Fv 5G4S 1189Fv (other)
# heavy: EVQLVESGGGLVQPGGSLRLSCAASGFTFTNYGIHWIRQAPGKGLEWVASISPSGGLTYYRDSVKGRFTISRDDAKNSPYLQMNSLRAEDTAVYYCATGGEGIFDYWGQGTLVTVSSASTKGPSVFPLAPSSKSTSGGTAALGCLVKDYFPEPVTVSWNSGALTSGVHTFPAVLQSSGLYSLSSVVTVPSSSLGTQTYICNVNHKPSNTKVDKKVEPKSCSGGGGSGGGGSGGGGSEVQLLESGGGLVQPGGSLRLSCAVSGIDLSNYAINWVRQAPGKCLEWIGIIWASGTTFYATWAKGRFTISRDSTTVYLQMNSLRAEDTAVYYCARTVPGYSTAPYFDLWGQGTLVTVSSGGGGSGGGGSGGGGSGGGGSGGGGSEVQLVESGGGLVQPGGSLRLSCAASGFTFNDYDMAWVRQAPGKCLEWVASITPSGGGTYYRDSVKGRFTISRDNAKNSLYLQMNSLRAEDTAVYYCARHGYTLDYFEYWGQGTMVTVSS
# light: DIQMTQSPSSLSASVGDRVTITCRATQSIYNALAWYQQKPGKAPKLLIYNANTLHTGVPSRFSASGSGTDSTLTISSLQPEDFATYYCQQYYDYPLTFGGGTKVEIKRTVAAPSVFIFPPSDEQLKSGTASVVCLLNNFYPREAKVQWKVDNALQSGNSQESVTEQDSKDSTYSLSSTLTLSKADYEKHKVYACEVTHQGLSSPVTKSFNRGECSGGGGSGGGGSGGGGSDIVMTQSPSSVSASVGDRVTITCQSSPSVWSNFLSWYQQKPGKAPKLLIYEASKLTSGVPSRFKGSGSGTDFTLTISSLQPEDFATYYCGGGYSSISDTTFGCGTKVEIKGGGGSGGGGSGGGGSGGGGSGGGGSDIQMTQSPSSLSASVGDRVTITCLASEGISNDLAWYQQKPGKAPKLLIYDATRLQDGVPSRFSGSGSGTDFTLTISSLQPEDFATYYCQQSYKYPWTFGCGTKLEIK
# notes: Trispecific Fab-Fv-Fv (OX40, HSA, IL-6); second linker 5xG4S; HEK293 supernatant; also called A26Fab-645Fv-1189Fv; FabFvFv
# B2: A26Fab 645Fv 4G4S 1189Fv (other)
# heavy: EVQLVESGGGLVQPGGSLRLSCAASGFTFTNYGIHWIRQAPGKGLEWVASISPSGGLTYYRDSVKGRFTISRDDAKNSPYLQMNSLRAEDTAVYYCATGGEGIFDYWGQGTLVTVSSASTKGPSVFPLAPSSKSTSGGTAALGCLVKDYFPEPVTVSWNSGALTSGVHTFPAVLQSSGLYSLSSVVTVPSSSLGTQTYICNVNHKPSNTKVDKKVEPKSCSGGGGSGGGGSGGGGSEVQLLESGGGLVQPGGSLRLSCAVSGIDLSNYAINWVRQAPGKCLEWIGIIWASGTTFYATWAKGRFTISRDSTTVYLQMNSLRAEDTAVYYCARTVPGYSTAPYFDLWGQGTLVTVSSGGGGSGGGGSGGGGSGGGGSEVQLVESGGGLVQPGGSLRLSCAASGFTFNDYDMAWVRQAPGKCLEWVASITPSGGGTYYRDSVKGRFTISRDNAKNSLYLQMNSLRAEDTAVYYCARHGYTLDYFEYWGQGTMVTVSS
# light: DIQMTQSPSSLSASVGDRVTITCRATQSIYNALAWYQQKPGKAPKLLIYNANTLHTGVPSRFSASGSGTDSTLTISSLQPEDFATYYCQQYYDYPLTFGGGTKVEIKRTVAAPSVFIFPPSDEQLKSGTASVVCLLNNFYPREAKVQWKVDNALQSGNSQESVTEQDSKDSTYSLSSTLTLSKADYEKHKVYACEVTHQGLSSPVTKSFNRGECSGGGGSGGGGSGGGGSDIVMTQSPSSVSASVGDRVTITCQSSPSVWSNFLSWYQQKPGKAPKLLIYEASKLTSGVPSRFKGSGSGTDFTLTISSLQPEDFATYYCGGGYSSISDTTFGCGTKVEIKGGGGSGGGGSGGGGSGGGGSDIQMTQSPSSLSASVGDRVTITCLASEGISNDLAWYQQKPGKAPKLLIYDATRLQDGVPSRFSGSGSGTDFTLTISSLQPEDFATYYCQQSYKYPWTFGCGTKLEIK
# notes: Trispecific Fab-Fv-Fv (OX40, HSA, IL-6); second linker 4xG4S; HEK293 supernatant; also called A26Fab-645Fv-1189Fv; FabFvFv
# How the values were obtained:
# IL-6 [1] = target: T1, IL-6 (UniProt P05231 30-212, limits assumed); experiment: SPR, Biacore T100; sample captured by anti-human CH1 antibody, IL-6 as analyte, 1:1 fit
# Procedure: (§1) Covalent immobilisation of the capture antibody was achieved by standard amine coupling chemistry.
# (§2) A blank flow-cell was used for reference subtraction and buffer-blank injections were included to subtract instrument noise and drift.
# (§3) Kinetic parameters were determined by simultaneous global-fitting of the resulting sensorgrams to a standard 1:1 binding model using Biacore T100 Evaluation Software v2.0.1.
# IL-6 [2] = target: T1, IL-6; experiment: SPR, Biacore T100; sample captured by anti-human CH1 antibody, IL-6 as analyte
# Procedure: as §1
# (§4) After each cycle, the capture surface was regenerated with 2×1 min injections of 40 mM HCl followed by 30 s of 5 mM NaOH. The flow rates used were 10 μl/min for capture, 30 μl/min for association and dissociation phases, and 10 μl/min for regeneration.
# as §2
# human serum albumin [3] = target: T2, human serum albumin (human, UniProt P02768 25-609); experiment: SPR, Biacore T100; sample captured by anti-human CH1 antibody, HSA as analyte
# T2 construct: Bought protein; also called HSA
# Procedure: as §1, §4, §2
# human serum albumin [4] = target: T2, human serum albumin; experiment: SPR, Biacore T100; sample captured by anti-human CH1 antibody, HSA as analyte, 1:1 fit
# Procedure: as §1, §4, §3
Binder,Kd (IL-6 [1]),koff (IL-6 [1]),kon (IL-6 [1]),Stoichiometry (IL-6 [2]),Stoichiometry (human serum albumin [3]),Kd (human serum albumin [4]),koff (human serum albumin [4]),kon (human serum albumin [4])
B1,0.48 nM,0.000768 s⁻¹,1.61e+06 M⁻¹ s⁻¹,0.69,0.39,12.2 nM,0.000393 s⁻¹,32400 M⁻¹ s⁻¹
B2,0.52 nM,0.000729 s⁻¹,1.41e+06 M⁻¹ s⁻¹,0.66,0.4,11.7 nM,0.000396 s⁻¹,33900 M⁻¹ s⁻¹
